Experimental data: article doi:10.1101/2023.11.17.567387

Target: C. elegans DPF-3 (C. elegans)
Test: cryo-EM structure

- stoichiometry N: 2
Substance: C. elegans DPF-3 (enzyme)
